Laboratory results taken from publication PMC12912723.

Target: PscF from strain PAO1 (Pseudomonas aeruginosa) (UniProt P95434)
Test: ELISA; competition with biotinylated P1D8

IC50: 0.01 µg/mL
Substance: P1D8 (human anti-PscF monoclonal antibody) (from UniProt P01857)
